Test results as given in US20230364000A1, “COMPOSITIONS COMPRISING COMBINATIONS OF COLLAGEN OR ELASTIN POLYPEPTIDES WITH ACTIVE INGREDIENTS AND METHODS OF USING SAME” (Geltor, Inc., priority 2020, published 2023).

What was measured:
[1] = system: Human full-thickness skin equivalents (MatTek Epiderm FT co-culture tissue models); assay: Fibronectin production in human full-thickness skin equivalents (ELISA); type: cell-based; conditions: polypeptide 0.1% w/w, FIG. 19; for production of fibronectin as compared to untreated cells: each agent alone, day 4, retinol (10, unit not given), ascorbic acid 2% w/w, hyaluronic acid 0.1% w/w
[2] = system: Human full-thickness skin equivalents (MatTek Epiderm FT co-culture tissue models); assay: Elastin production in human full-thickness skin equivalents (ELISA); type: cell-based; conditions: polypeptide 0.1% w/w, retinol (10, unit not given), ascorbic acid 2% w/w, FIG. 20; for increase of elastin production relative to untreated control: day 2 supernatant; for production of elastin as compared to untreated cells: each agent alone, day 2, hyaluronic acid 0.1% w/w
Source text: The combination of the truncated human type 21 collagen polypeptide with retinol increased elastin production by 45% relative to untreated control. This appeared to be a synergistic effect as treatment with truncated human type 21 collagen polypeptide alone increased elastin production by 20% and treatment with retinol alone increased elastin production by 17%. The combination of the truncated human type 21 collagen polypeptide with ascorbic acid increased elastin production by 33% relative to untreated control. This appeared to be a synergistic effect as treatment with truncated human type 21 collagen polypeptide alone increased elastin production by 20% and treatment with ascorbic acid alone increased elastin production by 5%.

[3] = system: Human full-thickness skin equivalents (MatTek Epiderm FT co-culture tissue models); assay: Type I collagen production in human full-thickness skin equivalents (pro-collagen type I C-peptide ELISA); type: cell-based; conditions: polypeptide 0.1% w/w, FIG. 18; for production of type I collagen as compared to untreated cells: each agent alone, day 4, retinol (10, unit not given), ascorbic acid 2% w/w, hyaluronic acid 0.1% w/w
Experimental: Human full-thickness skin equivalents (MatTek Epiderm FT co-culture tissue models) which contain keratinocytes and fibroblasts were treated with a 0.1% w/w truncated human type 21 collagen polypeptide (having an amino acid sequence of SEQ ID NO: 16) (“C21”; FIG. […] Culture medium was changed every 2 days. On day 4, supernatant was collected and analyzed by enzyme-linked immunosorbent assay (ELISA) for pro-collagen type I C-peptide, which is a readout for total secreted collagen type I protein.

[4] = system: Human full-thickness skin equivalents (MatTek Epiderm FT co-culture tissue models); assay: Type III collagen production in human full-thickness skin equivalents (pro-collagen type III N-peptide ELISA); type: cell-based; conditions: polypeptide 0.1% w/w, ascorbic acid 2% w/w, FIG. 21; for production of type III collagen as compared to untreated cells: each agent alone, day 2, retinol (10, unit not given), hyaluronic acid 0.1% w/w
[5] = system: human primary keratinocytes; assay: MTT viability of keratinocytes exposed to urban dust; type: cell-based; conditions: pre-treated with 0.03% for 24 hours, then 2 mg/ml urban dust (NIST 1649B) for 24 hours; compared with untreated exposed keratinocytes; FIG. 13
Experimental: To test for protection from urban dust, human primary keratinocytes were pre-treated with 0.03% of a polypeptide of SEQ ID NO: 5 for 24 hours, and then exposed to 2 mg/ml urban dust (NIST 1649B) for 24 hours. Cell viability was evaluated using the MTT metabolic colorimetric assay.

[6] = system: human primary keratinocytes; assay: Thymine dimers in UVB-irradiated keratinocytes (OxiSelect UV-Induced DNA Damage ELISA); type: cell-based; conditions: 25 mJ/cm^2 UVB, then overnight with 0.03%; compared with untreated cells; FIG. 11
Experimental: In a further study, human primary keratinocytes were irradiated with 25 mJ/cm^2 UVB light, then incubated overnight in media with 0.03% of a polypeptide of SEQ ID NO: 5. DNA was extracted from the cells and analyzed for levels of thymine dimers (an indicator of DNA damage) using an OxiSelect UV-Induced DNA Damage ELISA kit.

[7] = system: in vitro full thickness human skin tissue model (MatTek); assay: IL-la ELISA in UVB-irradiated full thickness human skin tissue model; type: cell-based; conditions: 300 mJ/cm^2 UVB, then 0.01% for 24 hours; compared to untreated UVB-irradiated control; FIG. 14
Experimental: In a further study with the in vitro full thickness human skin tissue model (MatTek), the MatTek tissue models were irradiated with 300 mJ/cm^2 UVB light, then treated with 0.01% of a polypeptide of SEQ ID NO: 5 for 24 hours. Levels of pro-inflammatory cytokine IL-la was determined by ELISA.

[8] = Oxygen radical absorbance capacity (ORAC) assay, cell-free; type: biochemical; conditions: for anti-oxidative capacity (ORAC): FIG. 25
Experimental: The antioxidant potential of a polypeptide of SEQ ID NO: 16 was assessed using the oxygen free radical absorbance capacity (ORAC) assay. The ORAC assay is a cell-free assay that uses a fluorescent readout to measure a product's antioxidant capacity. Data is reported in Trolox (Vitamin E) equivalents.
A polypeptide of SEQ ID NO: 5 was also evaluated in the ORAC assay.
An oxygen radical absorbance capacity (ORAC) assay was performed to analyze the anti-oxidative capacity of a polypeptide according to SEQ ID NO: 52. The ORAC assay is a cell-free assay that uses a fluorescent readout to measure anti-oxidative capacity. Data is reported in Trolox (Vitamin E) equivalents (TEs).

facial skin [9] = assay: Cutometer facial skin elasticity, clinical study of Example 7; type: in vivo, human; conditions: topical facial cream 0.05%, n=18, FIG. 17
Source text: (§1) In a clinical study (n=18 subjects), subjects used a topical facial cream containing 0.05% of a polypeptide of SEQ ID NO: 5 for 2 weeks.

facial skin [10] = assay: Facial skin hydration, clinical study of Example 7; type: in vivo, human; conditions: topical facial cream 0.05%, n=18, FIG. 16
Source text: as §1

[11] = system: human primary keratinocytes; assay: MTT viability of UVB-irradiated keratinocytes, post-irradiation treatment; type: cell-based; conditions: 40 mJ/cm^2 UVB, then 48 hours with 0.03%; compared with untreated UVB-irradiated keratinocytes; FIG. 12
Experimental: Human primary keratinocytes were irradiated with 40 mJ/cm^2 UVB light, then incubated for 48 hours in media with 0.03% of a polypeptide of SEQ ID NO: 5. Cell viability was evaluated using the MTT metabolic colorimetric assay.

[12] = system: in vitro full thickness human skin tissue model (MatTek); assay: Collagen type I secretion by full thickness human skin tissue model (pro-collagen type I C-peptide ELISA); type: cell-based; conditions: treatment 48 hours, fresh media another 48 hours (96 hour timepoint); compared with untreated tissue models or positive control Vitamin B3; FIG. 10
Experimental: A series of in vitro experiments were conducted to assess the effects of a truncated jellyfish collagen on human skin fibroblasts and keratinocytes. An in vitro full thickness human skin tissue model (MatTek) which contains fibroblasts and keratinocytes was evaluated for collagen type I secretion after treatment with a polypeptide of SEQ ID NO: 5 for 48 hours. The tissue models were then rinsed and incubated with fresh media for another 48 hours (96 hour timepoint). The culture supernatants were analyzed by ELISA for pro-collagen type I C-peptide (a readout for total secreted collagen type I protein).

Keratinocytes = assay: Clariom microarray global gene expression in keratinocytes; type: cell-based; conditions: 0.03% w/w solution, 24 hours, relative to untreated cells
Experimental: Keratinocytes were incubated for 24 hours with media alone or with 0.03% w/w solution of a polypeptide according to SEQ ID NO: 52. RNA was extracted from the cells and analyzed by Clariom microarray (ThermoFisher) for global gene expression.
Keratinocytes were incubated for 24 hours with media alone (untreated) or with 0.03% w/w solution of a polypeptide according to SEQ ID NO: 52. RNA was extracted from the cells and analyzed by Clariom microarray (ThermoFisher) for global gene expression.

[13] = system: human primary fibroblasts; assay: Fibroblast collagen type I protein secretion with truncated elastin (pro-collagen type I C-peptide ELISA); type: cell-based; conditions: 48 hours, compared with untreated control fibroblasts, FIG. 24
Experimental: Fibroblasts are the main source of the extracellular matrix peptides, including the structural proteins collagen and elastin. Human primary fibroblasts were evaluated for collagen type I protein secretion. Fibroblasts were cultured with a polypeptide according to SEQ ID NO: 52 for 48 hours. The culture supernatants were analyzed by ELISA for pro-collagen type I C-peptide, a readout for total secreted collagen type I protein.

[14] = system: Human primary fibroblast cultures; assay: Fibroblast elastin production (ELISA kit); type: cell-based; conditions: 0.03% w/w solution; 24 hours; compared to media alone; FIG. 28
Experimental: Human primary fibroblast cultures were treated for 24 hours with media alone (untreated) or with 0.03% w/w solution of a polypeptide having an amino acid sequence according to SEQ ID NO: 52. Supernatants were collected and evaluated for elastin production using an ELISA kit.

[15] = day 4 supernatant, hyaluronic acid 0.1% w/w (low molecular weight, 15-40 kDa)

O=C1O[C@H]([C@@H](O)CO)C(O)=C1O [ascorbic acid]
production of fibronectin as compared to untreated cells [1]: increased production | increase of elastin production relative to untreated control [2]: 5% | production of elastin as compared to untreated cells [2]: increased production | production of type I collagen as compared to untreated cells [3]: increased production | increase of type III collagen production relative to untreated control ([4]; day 2 supernatant): 80% | production of type III collagen as compared to untreated cells [4]: increased production

hyaluronic acid
increase of fibronectin production relative to untreated control [1, 15]: 30% | production of fibronectin as compared to untreated cells [1]: increased production | production of elastin as compared to untreated cells [2]: increased production | increase of type I collagen production relative to the untreated control [3, 15]: 72% | production of type I collagen as compared to untreated cells [3]: increased production | production of type III collagen as compared to untreated cells [4]: increased production

CC1=C(/C=C/C(C)=C/C=C/C(C)=C/CO)C(C)(C)CCC1 [retinol]
production of fibronectin as compared to untreated cells [1]: increased production | increase of elastin production relative to untreated control [2]: 17% | production of elastin as compared to untreated cells [2]: increased production | production of type I collagen as compared to untreated cells [3]: increased production | production of type III collagen as compared to untreated cells [4]: increased production

B1: SEQ ID NO: 5: truncated jellyfish collagen without a His tag, linker, and thrombin cleavage site (protein)
chain: GPQGVVGADGKDGTPGNAGQKGPSGEPGSPGKAGSAGEQGPPGKDGSNGEPGSPGKEGERGLAGPPGPDGRRGETGSPGIAGALGKPGLEGPKGYPGLRGRDGTNGKRGEQGETGPDGVRGIPGNDGQSGKPGIDGIDGTNGQPGEAGYQGGRGTRGQLGETGDVGQNGDRGAPGPDGSKGSAGRPGLR
cell viability (MTT) after urban dust exposure [5]: higher cell viability | level of thymine dimers (DNA damage) [6]: lower level | levels of IL-la [7]: lower levels | antioxidant properties, Trolox (Vitamin E) equivalents ([8]; 0.1% solution): 193 μM Trolox | skin elasticity (cutometer) (facial skin [9]; 1 week vs baseline): increased | skin elasticity (cutometer) (facial skin [9]; 2 weeks vs baseline): increased | skin hydration (facial skin [10]; 1 week vs baseline): increased | skin hydration (facial skin [10]; 2 weeks vs baseline): increased | skin hydration relative to topical application of marine collagen (facial skin [10]; baseline, 1 week and 2 weeks): increased skin hydration | cell viability (MTT) [11]: higher cell viability | secreted collagen type I (pro-collagen type I C-peptide) [12]: higher levels

B2: SEQ ID NO: 52: 13 kDa non-naturally occurring truncated human elastin without the DsbA secretion tag (protein)
chain: AGLGGVPGVGGLGVSAGAVVPQPGAGVKPGKVPGVGLPGVYPGGVLPGARFPGVGVLPGVPTGAGVKPKAPGVGGAFAGIPGVGPFGGPQPGVPLGYPIKAPKLPGGYGLPYTTGKLPYGYGPGGVAGAAGKAGYPTGTGVGPQ
anti-oxidative capacity (ORAC) ([8]; 0.0125% w/w solution): anti-oxidative properties | anti-oxidative capacity (ORAC) ([8]; 0.025% w/w solution): anti-oxidative properties | anti-oxidative capacity (ORAC) ([8]; 0.05% w/w solution): anti-oxidative properties | anti-oxidative capacity (ORAC) ([8]; 0.1% w/w solution): anti-oxidative properties | anti-oxidative properties, Trolox (Vitamin E) equivalents ([8]; 0.2% w/w solution): 228 μM Trolox | anti-oxidative capacity (ORAC) ([8]; 0.2% w/w solution): anti-oxidative properties | expression of antioxidant genes, including SOD2, GPX2, GPX4, GSTK1, GSTZ1, GSTA4, GSTM2, CCS, GPX1, GLRX, PRDXS, PRDX6, and PRDX2 (Keratinocytes; FIG. 26): upregulated | expression of pro-apoptotic genes, including APAF1, BAK1, CASP7, CASP8, FADD, MCL1, and MET (Keratinocytes; FIG. 27): downregulated | secreted collagen type I (pro-collagen type I C-peptide) ([13]; 0.025% w/w solution): higher levels | secreted collagen type I (pro-collagen type I C-peptide) ([13]; 0.05% w/w solution): higher levels | secreted collagen type I (pro-collagen type I C-peptide) ([13]; 0.1% w/w solution): higher levels | production of elastin [14]: increased production
